Experimental data from patent US20030036169A1.

B1: Mint 1 (protein)
chain: MNHLEGSAEVEVADEAPGGEVNESVEADLEHPEVEEEQQPSPPPPAGHAPEDHRAHPAPPPPPPPQEEEEERGECLARSASTESGFHNHTDTAEGDVLAAARDGYEAERAQDADDESAYAVQYRPEAEEYTEQAEAEHAEAAQRRALPNHLHFHSLEHEEAMNAAYSGYVYTHRLFHRAEDEPYAEPYADYGGLQEHVYEEIGDAPELEARDGLRLYERERDEAAAYRQEALGARLHHYDERSDGESDSPEKEAEFAPYPRMDSYEQEEDIDQIVAEVKQSMSSQSLDKAAEDMPEAEQDLERAPTPGGGHPDSPGLPAPAGQQQRVVGTPGGSEVGQRYSKEKRDAISLAIKDIKEAIEEVKTRTIRSPYTPDEPKEPIWVMRQDISPTRDCDDQRPVDGDSPSPGSSSPLGAESSITPLHPGDPTEASTNKESRKSLASFPTYVEVPGPCDPEDLIDGIIFAANYLGSTQLLSDKTPSKNVRMMQAQEAVSRIKTAQKLAKSRKKAPEGESQPMTEVDLFISTQRIKVLNADTQEPMMDHPLRTISYIADIGNIVVLMARRRMPRSNSQENVEASHPSQDAKRQYKMICHVFESEDAQLIAQSIGQAFSVAYQEFLRANGINPEDLSQKEYSDLLNTQDMYNDDLIHFSKSENCKDVFIEKQKGEILGVVIVESGWGSILPTVIIANMMHGGPAEKSGKLNIGDQIMSINGTSLVGLPLSTCQSIIKGLKNQSRVKLNIVRCPPVTTVLIRRPDLRYQLGFSVQNGIICSLMRGGIAERGGVRVGHRIIEINGQSVVATPHEKIVHILSNAVGEIHMKTMPAAMYRLLTAQEQPVYI
B2: Mint 2 (protein)
chain: MAHRKRQSTASSMLDHRARPGPIPHDQEPENEDTELPLESYVPTGLELGTLRPDSPTPEEQECHNHSPDGDSSSDYVNNTSEEEDYDEGLPEEEEGVTYYIRYCPEDDSYLEGMDCNGEEYLAHGAHPVDTDECQEAVEDWTDSVGPHTHSHGAENSQEYPDSHLPIPEDDPTVLEVHDQEEDGHYCPSKESYQDYYPPETNGNTGGASPYRMRRGDGDLEEQEEDIDQIVAEIKMSLSMTSITSASEASPEHMPELDPGDSTEACSPSDTGRGPSRQEARPKSLNLPPEVKHSGDPQRGLKTKTRTPEERPKWPQEQVCNGLEQPRKQQRSDLNGPTDNNNIPETKKVASFPSFVAVPGPCEPEDLIDGIIFAANYLGSTQLLSERNPSKNIRMMQAQEAVSRVKRMQKAAKIKKKANSEGDAQTLTEVDLFISTQRIKVLNADTQETMMDHALRTISYIADIGNIVVLMARRRMPRSASQDCIETTPGAQEGKKQYKMICHVFESEDAQLIAQSIGQAFSVAYQEFLRANGINPEDLSQKEYSDIINTQEMYNDDLIHFSNSENCKELQLEKHKGEILGVVVVESGWGSILPTVILANMMNGGPAARSGKLSIGDQIMSINGTSLVGLPLATCQGIIKGLKNQTQVKLNIVSCPPVTTVLIKRPDLKYQLGFSVQNGIICSLMRGGIAERGGVRVGHRIIEINGQSVVATAHEKIVQALSNSVGEIHMKTMPAAMFRLLTGQETPLYI
B3: Mint 3 (protein, rat, UniProt O70248 1-569, looked up)
chain: MEFLPEPQHPPGPPTMDLEEPKGPEVPSEDHPSNTQWALGPRGPDTLSEMELDTSSVRALVQQLEALPSDLGGQFPDGAPCPLHIATGQGLATQENLDAGGLLSAEAGGDNLLGLLRCEASLPAQSVPPDPAQAAPRLLQPPEDPGGDPGWMEGTEPADNRSSSSSPELWLETAPLVTHRDPPVGTQSQETLASCPAVSEVPGPCGQEELMDGVLFGAKYLGSTQLLSERNPPPSTRMGQAQEAMDRVKAPEGETQPMTEVDIFISTKRVKVLAADSQDALMDHALQTISYIADIGPVLVLMARRRLAKRTTSQDRQRQLYKMLCHVFHSEDAQLIAQAIGQAFSIAYSQFLQENRIDPSQVGMQPSASASHPHNGDLDHFCNSQNCREVCIQKRPGEGLGVALVESGWGSLLPTAVIANLLHGGPAERCGALSIGDRVTAINGTSLVGLSLAACQAAVREVRRHSSVTLSIIHCPPVTTAVIHRPHVREQLGFCVENGIICSLLRGSAAERGGVRVGHRIIEVNGQSVVAMPHARIIQLLTETREIHIKTMPAATYRLLTGQEQPVYL

target: APP695 (human) (UniProt P05067); assay: cell-based or functional assay

| Binder | steady-state levels of transfected APP695 in HEK293 cells (quantitative immunoblot) [fold] |
| --- | --- |
| B1 | < 3 |
| B2 | < 3 |
| B3 | < 3 |
